# Reference: US20160146827A1
# Target: GST-tagged PAK1-PBD protein (Cytoskeleton Inc.), Rac/Cdc42 (p21) binding domain of human p21 activated kinase 1, residues 67-150 (human) (UniProt Q13153)
# Test: fluorescence anisotropy in solution
# Chain of GST-tagged PAK1-PBD protein (Cytoskeleton Inc.), Rac/Cdc42 (p21) binding domain of human p21 activated kinase 1, residues 67-150 (human) (Q13153 67-150 limits assumed): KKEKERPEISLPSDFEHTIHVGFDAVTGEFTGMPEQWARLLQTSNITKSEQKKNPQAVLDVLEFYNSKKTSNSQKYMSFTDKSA
substance,measurement,value
"LUMP-Cdc42, fusion protein of LUMP with the constitutively active GTPase Cdc42 (Q61L) connected by a ten amino acid flexible linker (…) (from UniProt Q06877 1-186; P60953 1-191)",anisotropy (before addition),0.19
same,anisotropy (bound),0.22
same,increase in anisotropy on binding,14%
